Test [1] concerns the target human RANK-L (Receptor Activator of Nuclear factor Kappa B Ligand), soluble (human) (UniProt O14788). Briefly: cell-based or functional assay.
Test [2] concerns the target T1, human RANK-L (Receptor Activator of Nuclear factor Kappa B Ligand), soluble (human, UniProt O14788 140-317, limits assumed).
T1 construct: Used plain, biotinylated or ALEXA647-labeled; also called hRANK-L; sRANK-L
T1 sequence (looked up): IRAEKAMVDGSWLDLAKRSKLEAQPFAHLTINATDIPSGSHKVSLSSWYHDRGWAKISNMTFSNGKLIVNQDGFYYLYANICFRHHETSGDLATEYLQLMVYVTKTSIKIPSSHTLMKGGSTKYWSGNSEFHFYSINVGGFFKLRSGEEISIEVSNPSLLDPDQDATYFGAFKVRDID
As to the kind of experiment: AlphaScreen, biotinylated RANK-L vs RANK-huFc beads. (In general: In Alpha technology, singlet oxygen from a donor bead excites a nearby acceptor bead.)

For test [3], the target named is T1, human RANK-L (Receptor Activator of …). Briefly: SPR BIACORE 3000, RANK-L on CM5 chip, 100 nM Nanobody. (In general: SPR reads the build-up and loss of mass on a sensor chip optically.)
The target is the same in test [4]. Briefly: SPR BIACORE 3000, RANK-L on CM5 chip, 100 nM Nanobody; indicative, one concentration.

In turn, “osteoprotegerin (from UniProt O00300 22-401) (receptor)” showed an IC50, NF-kappaB reporter gene assay (luciferase, HEK293T, 300 ng/ml human RANK-L) in test [1] of 6.03 nM.

B1: RANKL18hum3 (VHH)
VHH: EVQLVESGGGLVQPGGSLRLSCAASGRTFSRSAMGWFRQAPGKGREFVGFITGSGGTTYYADSVKGRFTISRDNAQNPVYLQMNSLRPEDTAVYYCGVYRRTYISSTYSESSEYDYWGQGTLVTVSS
As usually defined, the IC50 is the point on the concentration scale where inhibition reaches its midpoint. A low value points to greater potency. For orientation: koff means the first-order rate constant of dissociation. As usually defined, the Kd is a measure of binding affinity in units of concentration. The low end stands for a tighter complex, the high end for a looser complex. The kon is the rate constant with which the complex forms. For B1, in test [2], 0.274 nM corresponded to half-maximal inhibition (IC50). The dissociation rate constant (koff) in test [3] was 0.000127 s⁻¹. In test [4], binding was characterised by a dissociation constant (Kd) of 0.288 nM and the kon came out at 441000 M⁻¹ s⁻¹.

The record behind these values is US20170096490A1 (published 2017).
